Assay results: PMC12669767

T1: HECW1, endogenous in HEK293T, Q76N89
T1 chain: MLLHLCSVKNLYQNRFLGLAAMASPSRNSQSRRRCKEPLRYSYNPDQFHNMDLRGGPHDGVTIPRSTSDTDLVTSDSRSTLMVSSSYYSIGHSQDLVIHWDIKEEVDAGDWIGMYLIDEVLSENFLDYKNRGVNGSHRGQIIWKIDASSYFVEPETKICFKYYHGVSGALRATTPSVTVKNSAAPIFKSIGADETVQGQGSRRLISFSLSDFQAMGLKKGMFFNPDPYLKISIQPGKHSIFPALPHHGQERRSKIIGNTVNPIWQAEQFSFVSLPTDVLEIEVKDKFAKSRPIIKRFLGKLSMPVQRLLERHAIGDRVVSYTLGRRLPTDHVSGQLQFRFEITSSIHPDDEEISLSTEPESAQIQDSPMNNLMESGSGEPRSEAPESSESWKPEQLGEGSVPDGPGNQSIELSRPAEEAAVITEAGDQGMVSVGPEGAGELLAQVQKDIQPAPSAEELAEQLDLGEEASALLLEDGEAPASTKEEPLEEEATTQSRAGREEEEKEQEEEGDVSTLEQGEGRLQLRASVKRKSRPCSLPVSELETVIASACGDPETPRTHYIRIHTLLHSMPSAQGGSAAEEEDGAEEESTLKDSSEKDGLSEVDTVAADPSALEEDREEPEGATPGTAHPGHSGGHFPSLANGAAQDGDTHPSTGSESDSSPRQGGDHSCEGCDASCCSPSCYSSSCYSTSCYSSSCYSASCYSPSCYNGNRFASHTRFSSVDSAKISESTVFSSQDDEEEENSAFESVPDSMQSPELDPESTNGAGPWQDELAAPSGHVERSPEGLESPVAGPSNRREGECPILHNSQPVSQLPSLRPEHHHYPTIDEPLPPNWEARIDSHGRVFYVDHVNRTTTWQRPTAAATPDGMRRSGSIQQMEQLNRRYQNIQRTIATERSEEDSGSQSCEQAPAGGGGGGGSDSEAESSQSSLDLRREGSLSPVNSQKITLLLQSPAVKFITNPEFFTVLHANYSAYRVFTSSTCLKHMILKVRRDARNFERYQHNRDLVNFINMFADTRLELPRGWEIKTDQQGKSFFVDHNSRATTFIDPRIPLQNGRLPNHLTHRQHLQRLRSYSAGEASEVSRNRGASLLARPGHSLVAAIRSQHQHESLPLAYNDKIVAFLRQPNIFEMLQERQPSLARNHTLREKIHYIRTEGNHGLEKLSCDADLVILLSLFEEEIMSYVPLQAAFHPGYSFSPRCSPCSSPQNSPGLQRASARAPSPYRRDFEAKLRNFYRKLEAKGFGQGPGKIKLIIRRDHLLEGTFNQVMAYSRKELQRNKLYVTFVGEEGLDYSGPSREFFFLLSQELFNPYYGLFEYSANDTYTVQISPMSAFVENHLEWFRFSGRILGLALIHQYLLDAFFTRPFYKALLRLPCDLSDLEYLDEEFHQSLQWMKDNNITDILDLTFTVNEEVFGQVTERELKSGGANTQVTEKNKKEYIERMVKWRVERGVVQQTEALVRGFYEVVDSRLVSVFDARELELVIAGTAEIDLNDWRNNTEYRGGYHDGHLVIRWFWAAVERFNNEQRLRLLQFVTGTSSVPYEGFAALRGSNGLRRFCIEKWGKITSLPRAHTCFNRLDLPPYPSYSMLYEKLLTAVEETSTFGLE

T2: NEDD4, endogenous in HEK293T, P46934
T2 chain: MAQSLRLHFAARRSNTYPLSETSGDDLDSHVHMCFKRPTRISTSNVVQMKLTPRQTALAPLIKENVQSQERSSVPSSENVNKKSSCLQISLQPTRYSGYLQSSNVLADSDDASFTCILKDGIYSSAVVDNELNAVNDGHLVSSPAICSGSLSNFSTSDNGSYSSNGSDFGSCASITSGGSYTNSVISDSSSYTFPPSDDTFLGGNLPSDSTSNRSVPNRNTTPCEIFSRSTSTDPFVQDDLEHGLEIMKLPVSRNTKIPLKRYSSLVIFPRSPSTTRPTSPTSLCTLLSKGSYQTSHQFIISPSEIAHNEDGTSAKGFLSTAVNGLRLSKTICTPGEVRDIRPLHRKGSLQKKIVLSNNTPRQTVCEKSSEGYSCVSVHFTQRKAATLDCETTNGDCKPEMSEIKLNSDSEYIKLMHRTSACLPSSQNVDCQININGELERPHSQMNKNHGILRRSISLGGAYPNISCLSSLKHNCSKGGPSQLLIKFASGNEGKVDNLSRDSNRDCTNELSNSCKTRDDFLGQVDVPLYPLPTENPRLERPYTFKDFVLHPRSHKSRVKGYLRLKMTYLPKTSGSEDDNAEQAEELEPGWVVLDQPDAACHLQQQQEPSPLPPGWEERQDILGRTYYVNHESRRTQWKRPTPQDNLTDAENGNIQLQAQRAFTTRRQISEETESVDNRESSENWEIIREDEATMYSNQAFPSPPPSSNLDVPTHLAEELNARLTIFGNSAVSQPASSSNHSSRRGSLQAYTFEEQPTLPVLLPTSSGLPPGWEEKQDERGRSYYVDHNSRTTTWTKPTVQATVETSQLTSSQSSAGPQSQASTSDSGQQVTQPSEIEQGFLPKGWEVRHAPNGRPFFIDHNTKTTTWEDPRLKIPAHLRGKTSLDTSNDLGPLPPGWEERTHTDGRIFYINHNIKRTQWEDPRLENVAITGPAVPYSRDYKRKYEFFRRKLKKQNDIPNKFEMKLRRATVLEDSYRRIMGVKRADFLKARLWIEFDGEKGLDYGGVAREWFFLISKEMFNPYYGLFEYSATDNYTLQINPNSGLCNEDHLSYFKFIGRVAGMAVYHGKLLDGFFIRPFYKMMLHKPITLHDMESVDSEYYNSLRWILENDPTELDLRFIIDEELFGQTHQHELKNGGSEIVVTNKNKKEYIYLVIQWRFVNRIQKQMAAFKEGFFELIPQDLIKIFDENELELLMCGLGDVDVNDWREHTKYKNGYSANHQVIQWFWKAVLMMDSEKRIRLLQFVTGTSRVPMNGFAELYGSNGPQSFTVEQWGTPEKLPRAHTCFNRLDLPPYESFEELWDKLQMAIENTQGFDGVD


Legend:
[1] = molecular target: T1, HECW1, endogenous in HEK293T, Q76N89; assay: co-immunoprecipitation of ALFA-TXNIP, label-free quantitative interactome (mass spectrometry); conditions: chain shown with the change, immunoprecipitated from HEK293T cells, n = 3, read off a plot
[2] = molecular target: T2, NEDD4, endogenous in HEK293T, P46934; assay: as above; conditions: chain shown with the change, immunoprecipitated from HEK293T cells, n = 3, read off a plot; for response (normalized abundance): abundances normalized to unspecific background binding to empty beads, scatter plot

other: log2 PPxY331/WT [1]	response (normalized abundance) ([2]; parent: est. 4.5e8)	other: log2 PPxY331/WT [2]	other: log2 PPxY/WT ([1]; volcano plot)	response (normalized abundance) ([2]; parent: est. 5.0e8)	other: log2 PPxY/WT ([2]; volcano plot)	Binder
-6.5 log2	1.2e+08	-1.7 log2	–	–	–	ALFA-tagged TXNIP (thioredoxin interacting protein), expressed in HEK293T, Q9H3M7 PPCY331AACA (protein) MVMFKKIKSFEVVFNDPEKVYGSGEKVAGRVIVEVCEVTRVKAVRILACGVAKVLWMQGSQQCKQTSEYLRYEDTLLLEDQPTGENEMVIMRPGNKYEYKFGFELPQGPLGTSFKGKYGCVDYWVKAFLDRPSQPTQETKKNFEVVDLVDVNTPDLMAPVSAKKEKKVSCMFIPDGRVSVSARIDRKGFCEGDEISIHADFENTCSRIVVPKAAIVARHTYLANGQTKVLTQKLSSVRGNHIISGTCASWRGKSLRVQKIRPSILGCNILRVEYSLLIYVSVPGSKKVILDLPLVIGSRSGLSSRTSSMASRTSSEMSWVDLNIPDTPEAAACAMDVIPEDHRLESPTTPLLDDMDGSQDSPIFMYAPEFKFMPPPTYTEVDPCILNNNVQ
–	–	–	-6.6 log2	1e+08	-2.2 log2	ALFA-tagged TXNIP (thioredoxin interacting protein), expressed in HEK293T, Q9H3M7 PPCY331AACA; PPTY375AATA (protein) MVMFKKIKSFEVVFNDPEKVYGSGEKVAGRVIVEVCEVTRVKAVRILACGVAKVLWMQGSQQCKQTSEYLRYEDTLLLEDQPTGENEMVIMRPGNKYEYKFGFELPQGPLGTSFKGKYGCVDYWVKAFLDRPSQPTQETKKNFEVVDLVDVNTPDLMAPVSAKKEKKVSCMFIPDGRVSVSARIDRKGFCEGDEISIHADFENTCSRIVVPKAAIVARHTYLANGQTKVLTQKLSSVRGNHIISGTCASWRGKSLRVQKIRPSILGCNILRVEYSLLIYVSVPGSKKVILDLPLVIGSRSGLSSRTSSMASRTSSEMSWVDLNIPDTPEAAACAMDVIPEDHRLESPTTPLLDDMDGSQDSPIFMYAPEFKFMPAATATEVDPCILNNNVQ
